Test [1] has as its target STY3178, a yfdX protein from Salmonella Typhi (Salmonella Typhi (CT18)). Description: SEC.
For test [2] the target is unchanged. The test is described as follows: NMR relaxation (1D 1H-15N T1 and T2, rotational correlation time).

Consider “STY3178, a yfdX protein from Salmonella Typhi (natural protein)”, for which the stoichiometry N in test [1] and in test [2] was 3 in each case.

The values are drawn from paper PMC4759549.
